Results: IntAct's records for PubMed 19171758

B1: BAR/IMD domain-containing adapter protein 2 (Homo sapiens), Q9UQB8-4 (parent)
chain: MSLSRSEEMHRLTENVYKTIMEQFNPSLRNFIAMGKNYEKALAGVTYAAKGYFDALVKMGELASESQGSKELGDVLFQMAEVHRQIQNQLEEMLKSFHNELLTQLEQKVELDSRYLSAALKKYQTEQRSKGDALDKCQAELKKLRKKSQGSKNPQKYSDKELQYIDAISNKQGELENYVSDGYKTALTEERRRFCFLVEKQCAVAKNSAAYHSKGKELLAQKLPLWQQACADPSKIPERAVQLMQQVASNGATLPSALSASKSNLVISDPIPGAKPLPVPPELAPFVGRMSAQESTPIMNGVTGPDGEDYSPWADRKAAQPKSLSPPQSQSKLSDSYSNTLPVRKSVTPKNSYATTENKTLPRSSSMAAGLERNGRMRVKAIFSHAAGDNSTLLSFKEGDLITLLVPEARDGWHYGESEKTKMRGWFPFSYTRVLDSDGSDRLHMSLQQGKSSSTGNLLDKDDLAIPPPDYGAASRAFPAQTASGFKQRPYSVAVPAFSQGLDDYGARSMSSGSGTLVSTV

Variants of: B1
Conditions: with rac1_human RAC1, P63000

Variant | effect of a mutation on the interaction
R11E;K143E | disrupting interaction
